Laboratory results taken from US20250276076A1 (Seagen, published 2025).
Changes are numbered by the printed parent chain. Blank lines part the entries; values can stand above or below the binder they belong to.

What was measured:
[1] = target: T1, soluble human ALPP-Fc fusion dimer (human, UniProt P05187 23-506); test: BLI (Octet), antibody on anti-human Fab-CH1 biosensors, hALPP Fc homodimer as analyte, pH 7.4, 37 °C, bivalent affinity
T1 construct: Made in CHO cells; also called hALPP; hALPP Fc
Excerpt: (§1) Soluble human ALPP-Fc and ALPPL2-Fc fusion dimer proteins were generated in CHO cells to be used as the analyte. […] After reference subtraction of the probe only curve, the data was globally fit with a 1:1 model with the Rmax sensor unlinked.

[2] = target: T2, soluble human ALPPL2-Fc fusion dimer (human, UniProt P10696 20-503); test: BLI, antibody on FAB2G biosensors, ALPPL2-Fc dimer as analyte, bivalent, pH 6.0, 37 C
T2 construct: Made in CHO cells; also called hALPPL2
Excerpt: as §1
(§2) The only difference was the use of a different kinetic buffer (1% casein and 0.2% Tween20 in phosphate citrate pH 6.0).

[3] = target: T1, soluble human ALPP-Fc fusion dimer; test: BLI, antibody on FAB2G biosensors, ALPP-Fc dimer as analyte, bivalent, pH 6.0, 37 C
Excerpt: as §1, §2

[4] = target: T2, soluble human ALPPL2-Fc fusion dimer; test: BLI (Octet Red 384), antibody on FAB2G biosensors, ALPPL2-Fc dimer as analyte, bivalent, pH 7.4, 37 C, 1:1 global fit
Excerpt: as §1

[5] = target: T1, soluble human ALPP-Fc fusion dimer; test: BLI (Octet Red 384), antibody on FAB2G biosensors, ALPP-Fc dimer as analyte, bivalent, pH 7.4, 37 C, 1:1 global fit
Excerpt: as §1

[6] = target: T3, hscFcRN (biotinylated avi-tagged, fused with monomeric Fc) (human, UniProt P55899 24-297; P61769 21-119, limits assumed, biotin on avi tag); test: BLI (Octet HTX, 30 °C), biotinylated hFcRN on streptavidin biosensors, ADC as analyte, 1:1 fit, pH 6.0
T3 construct: also called hFcRN; hscFcRN hmFc IHH A avi Biotin
Excerpt: (§3) Biotinylated avi-tagged human Fc receptors fused with monomeric Fc (designed and expressed at Seagen) were loaded onto high precision streptavidin biosensors (from ForteBio) to responses around 0.4 nm for all receptors except for hFcγR1 with responses around 1.2 nm. An initial baseline was completed in immobilization buffer (0.1% BSA, 0.02% Tween 20, 1×PBS pH 7.4) followed by a second baseline in kinetic buffer (1% casein, 0.2% Tween 20, 1×PBS pH 7.4 for hFcγRI, IIa, IIIa, and IIb interactions and 1% BSA+0.2% Tween 20, Phosphate Citrate pH 6.0 for hscFcRN interactions). […] Sensorgrams were generated on an Octet HTX system (ForteBio) at 30° C. and globally fitted with the 1:1 kinetic Langmuir isotherm model (Rmax unlinked) after a reference subtraction of the antigen-loaded, 0 nM analyte sensor. Negative controls with the highest concentration of antibodies and ADCs (20 μM) with no Fc receptor immobilized were also included to verify the absence of nonspecific binding of the analyte to the streptavidin biosensors themselves. Specific loading concentrations and times of each receptor to the streptavidin sensors and concentrations of titrated analytes are listed (Table 12 and Table 13).

[7] = target: T4, hFcγRIIb (biotinylated avi-tagged, fused with monomeric Fc) (human, UniProt P31994 43-217, biotin on avi tag); test: BLI (Octet HTX, 30 °C), biotinylated Fc receptor on streptavidin biosensors, ADC as analyte, 1:1 fit, pH 7.4
T4 construct: also called hFcγRIIb hmFc AAG avi Biotin
T4 sequence (looked up): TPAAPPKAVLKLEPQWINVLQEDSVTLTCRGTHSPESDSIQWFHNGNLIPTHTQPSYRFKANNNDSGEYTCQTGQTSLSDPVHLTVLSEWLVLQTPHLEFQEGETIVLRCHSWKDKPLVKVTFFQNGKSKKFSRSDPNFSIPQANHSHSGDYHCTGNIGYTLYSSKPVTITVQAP
Excerpt: as §3

[8] = target: T5, hFcγRIIIa V158 (biotinylated avi-tagged, fused with monomeric Fc) (human, UniProt P08637 17-208, biotin on avi tag); test: as above
T5 construct: also called hFcγRIIIa V158 hmFc AAG avi Biotin
Excerpt: as §3

[9] = target: T6, hFcγRIIa R131 (biotinylated avi-tagged, fused with monomeric Fc) (human, UniProt P12318 34-217, biotin on avi tag); test: as above
T6 construct: also called hFcγRIIa R131 hmFc AAG avi Biotin
T6 sequence (looked up): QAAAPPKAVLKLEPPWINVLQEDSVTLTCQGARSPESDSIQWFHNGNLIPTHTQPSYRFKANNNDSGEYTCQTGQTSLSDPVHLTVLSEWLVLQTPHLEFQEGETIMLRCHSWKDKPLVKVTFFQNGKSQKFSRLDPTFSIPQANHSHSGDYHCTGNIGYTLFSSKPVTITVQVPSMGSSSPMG
Excerpt: as §3

human ALPPL2 (on cells) [10] = target: T7, human ALPPL2 (on cells) (human, UniProt P10696 20-503); test: flow cytometry on ALPPL2-expressing HEK293 cells
T7 construct: the construct in the cells is not further defined; also called HEK-ALPPL2 cells; ALPPL2-expressing LoVo cells
Experimental: (§4) Cynomolgus ALPP, human ALPP, ALPPL2, ALPI and ALPL-expressing HEK293 cells were used to evaluate specificity and binding affinity. Briefly, one hundred thousand target-expressing HEK293 cells were transferred to 96-well plates. Cells were pelleted by centrifugation and resuspended in 100 μL of PBS+2% w/v BSA. After blocking, cells were resuspended in PBS+2% w/v BSA with unlabeled monoclonal anti-ALPP/ALPPL2 antibodies ranging in concentration from 8 pM to 666 nM and incubated on ice for 30 minutes. Cells were washed twice in PBS and resuspended in R-PE labeled secondary goat anti-human or anti-mouse antibodies (Jackson Immunoresearch, West Grove, PA) for 30 minutes on ice. […] Fluorescence was analyzed using an Attune NxT flow cytometer, and the percent of saturated fluorescent signal was used to determine percent bound and to subsequently calculate apparent KD.

human ALPPL2 (on cells) [11] = target: T7, human ALPPL2 (on cells); test: flow cytometry saturation binding on ALPPL2-expressing HEK293 cells (row 'nM Kd' of the table under the plot)
Experimental: as §4

human ALPP (on cells) [12] = target: T8, human ALPP (on cells) (human, UniProt P05187 23-506); test: flow cytometry saturation binding on ALPP-expressing HEK293 cells (row 'nM Kd' of the table under the plot)
T8 construct: the construct in the cells is not further defined; also called placental alkaline phosphatase; PLAP
Experimental: as §4

human ALPP (on cells) [13] = target: T8, human ALPP (on cells); test: flow cytometry on ALPP-expressing HEK293 cells
Experimental: as §4

T1 sequence (P05187 23-506 limits assumed): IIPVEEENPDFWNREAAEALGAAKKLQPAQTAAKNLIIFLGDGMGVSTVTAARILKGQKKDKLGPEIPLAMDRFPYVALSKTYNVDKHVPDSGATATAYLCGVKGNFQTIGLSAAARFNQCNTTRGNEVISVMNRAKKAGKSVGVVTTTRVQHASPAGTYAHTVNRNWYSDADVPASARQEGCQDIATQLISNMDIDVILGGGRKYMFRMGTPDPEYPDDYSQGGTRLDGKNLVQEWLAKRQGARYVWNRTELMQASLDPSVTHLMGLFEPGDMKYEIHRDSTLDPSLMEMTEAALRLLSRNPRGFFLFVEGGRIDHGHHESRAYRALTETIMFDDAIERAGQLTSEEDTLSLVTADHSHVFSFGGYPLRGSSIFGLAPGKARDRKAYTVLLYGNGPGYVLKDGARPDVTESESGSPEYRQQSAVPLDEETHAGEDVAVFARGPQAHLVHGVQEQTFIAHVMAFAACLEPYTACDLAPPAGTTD
T8 sequence (P05187 23-506 limits assumed): as above
T7 sequence (P10696 20-503 limits assumed): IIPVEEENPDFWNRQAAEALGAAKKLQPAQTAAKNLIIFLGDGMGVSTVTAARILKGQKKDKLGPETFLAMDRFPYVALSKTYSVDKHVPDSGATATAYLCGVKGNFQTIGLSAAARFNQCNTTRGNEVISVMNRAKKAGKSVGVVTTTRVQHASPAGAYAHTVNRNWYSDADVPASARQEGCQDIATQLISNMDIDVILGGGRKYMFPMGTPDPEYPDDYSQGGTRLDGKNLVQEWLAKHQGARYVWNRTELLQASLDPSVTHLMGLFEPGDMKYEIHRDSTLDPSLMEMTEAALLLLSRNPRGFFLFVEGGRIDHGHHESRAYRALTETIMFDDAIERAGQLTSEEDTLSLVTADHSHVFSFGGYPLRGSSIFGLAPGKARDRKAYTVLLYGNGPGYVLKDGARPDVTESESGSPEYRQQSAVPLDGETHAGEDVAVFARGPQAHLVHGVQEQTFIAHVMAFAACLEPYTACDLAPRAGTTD
T2 sequence (P10696 20-503 limits assumed): as above
T5 sequence (P08637 17-208 F176V): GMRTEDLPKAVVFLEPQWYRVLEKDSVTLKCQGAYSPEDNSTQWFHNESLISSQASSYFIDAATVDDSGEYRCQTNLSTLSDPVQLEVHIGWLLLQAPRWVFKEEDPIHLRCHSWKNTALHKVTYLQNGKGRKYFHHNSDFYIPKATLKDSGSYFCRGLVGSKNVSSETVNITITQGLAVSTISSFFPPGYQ

B1: h12F3 HFLD (antibody, V domains shown)
VH: EVQLVESGGGLVQPGRSLRLSCTASGFTFTDYYMSWVRQAPGKGLEWLALIRNKATGYTTEYSASVKGRFTISRDNSKSILYLQMNSLKTEDTAVYYCARASFYYDGKVLAYWGQGTLVTVSS
VL: DTQMTQSPSSLSASVGDRVTITCQASQDINKYIAWYQQKPGKAPKLLIYYTSSLQPGVPSRFSGSGSGTDYTFTISSLQPEDIATYYCLQYDNLYTFGQGTKLEIKR
notes: humanized 12F3 IgG variant
Kd [1]: 3.5 nM

B2: h12F3 HGLF (antibody, V domains shown)
VH: B1 VH with S63T
VL: DTQMTQSPSSLSASVGDRVTITCQASQDINKYLAWYQYKPGKAPKLLIHYTSSLQSGVPSRFSGSGSGRDYTFTISSLQPEDIATYYCLQYDNLYTFGQGTKLEIK
notes: Whole humanized IgG; also called humanized 12F3 HGLF; naked h12F3 antibody
Kd [2]: 4.8 nM | Kd [3]: 6.8 nM | Kd [4]: 0.044 nM | Kd [5]: 0.13 nM

B4: h12F3 HGLF-mc-vc-MMAE (antibody)
VH: not shown
VL: DTQMTQSPSSLSASVGDRVTITCQASQDINKYLAWYQYKPGKAPKLLIHYTSSLQSGVPSRFSGSGSGRDYTFTISSLQPEDIATYYCLQYDNLYTFGQGTKLEIKRTVAAPSVFIFPPSDEQLKSGTASVVCLLNNFYPREAKVQWKVDNALQSGNSQESVTEQDSKDSTYSLSSTLTLSKADYEKHKVYACEVTHQGLSSPVTKSFNRGEC
modifications: mc-vc-PABC-MMAE drug-linker on cysteines of the partially reduced antibody, 4 loads per antibody (chain and site not stated)
notes: antibody-drug conjugate of h12F3 HGLF; also called h12F3 HGLF-me-vc-MMAE; h12F3 HGLF-vc-MMAE(4); copies: 2 + 2
Kd [6]: 13.2 nM | Kd [7]: 67000 nM | Kd [9]: 7300 nM

The remaining lines, values ahead:

Kd [6]: 10.6 nM | Kd [7]: 36000 nM | Kd [8]: 1100 nM
B3: h12F3 HGLF-mp-dLAE-MMAE (antibody)
VH: not shown
VL: B4 VL
modifications: mp-dLAE-PABC-MMAE drug-linker on cysteines of the partially reduced antibody, 4 loads per antibody (chain and site not stated)
notes: antibody-drug conjugate of h12F3 HGLF; also called h12F3-mp-dLAE-MMAE; HGLF-dLAE-MMAE(4); copies: 2 + 2

EC50 (read off the curve) (human ALPPL2 (on cells) [10]): ~0.3 µg/mL | Kd (human ALPPL2 (on cells) [11]): 1.48 nM | Kd (human ALPP (on cells) [12]): 1.76 nM | EC50 (read off the curve) (human ALPP (on cells) [13]): ~0.3 µg/mL
B5: murine antibody 12F3 (antibody, V domains shown)
VH: EVKLVESGGGLVQPGGSLSLSCAASGFTFTDYYMSWVRQPPGKALEWLALIRNKATGYTTEYSASVKGRFTISRDNSQSILYLQMNALRAEDSATYYCARASFYYDGKVLAYWGQGTLVTVSA
VL: DTQMTQSPSSLSASLGGKVTITCKASQDINKYIAWYQYKTGKGPRLLIHYTSTLQPGIPSRFSGSGSGRDYSFSISNLEPEDIATYYCLQYDNLYTFGGGTKLEIK
notes: mouse hybridoma antibody; also called SG82-12F3; m12F3
